Laboratory results taken from paper PMC4987126 (Molecular immunology, 2016).

Biological target: T1, synthetic peptide of the C1q A chain, residues 14–26 (collagen region)
T1 peptide: AGRPGRRGRPGLK
Assay: ELISA

B1: gp41-3S, 17-residue synthetic peptide corresponding to the 3S motif of gp41 (peptide)
peptide: PWNASWSNKSLDDIWNC
binding result: binds
